B1: Azoarcus group I ribozyme (parent)
chain: GUGCCUUGCGCCGGGAAACCACGCAAGGGAUGGUGUCAAAUUCGGCGAAACCUAAGCGCCCGCCCGGGCGUAUGGCAACGCCGAGCCAAGCUUCGGCGCCUGCGCCGAUGAAGGUGUAGAGACUAGACGGCACCCACCUAAGGCAAACGCUAUGGUGAAGGCAUAGUCCAGGGAGUGGCGAAAGUCACACAAACCGG

In this data set the parent is B1. As to the kind of experiment: reverse-splicing fitness (ratio to wild type); higher = more active; in vitro selection; Mg2+ level not given. The essentials:
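An in vitro group I ribozyme library with randomized positions was T7-transcribed and gel-purified. In triplicate, 10 pmol RNA in EPPS pH 7.5 was reacted with 50 pmoles of a 30-nt RNA substrate for 1 h at 37 °C across several added MgCl2 levels (1–48 mM), then stopped with EDTA. Products were reverse transcribed from a substrate-complementary primer, PCR-amplified and sequenced (HiSeq 4000). Fitness is a variant's read proportion after selection over that before, normalised to wild type.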
Regarding GUGCCUUGCGCCGGGAAACCACGCAAGGGAUGGUGUCAAAUUCGGCGAAACCUAAGCGCCCGCCCGGGCGUAUGGCAACGCGGAGCCAAGCUUCGGCGCCUGCGCCGAUGGAGGUGUAGGGACUAGACGGCACCCACCUAAGGCCAACGGUAUGGUGAAGGCAUAGUCAAGGGAGCGGCGAAAGUCACACAAACCGG, the reverse-splicing fitness was found to be 0.009.
GUGCCUUGCGCCGGGAAACCACGCAAGGGAUGGUGUCAAAUUCGGCGAAACCUAAGCGCCCGCCCGGGCGUAUGGCAACGCGGAGCCAAGCUUCGGCGCCUGCGCCGAUGGAGGUGUAGGGACUAGACGGCACCCACCUAAGGCCAACGGUAUGGUGAAGGCAUAGUCAAGGGAGGGGCGAAAGUCACACAAACCGG: the reverse-splicing fitness turned out to be 0.00562.
As for GUGCCUUGCGCCGGGAAACCACGCAAGGGAUGGUGUCAAAUUCGGCGAAACCUAAGCGCCCGCCCGGGCGUAUGGCAACGCGGAGCCAAGCUUCGGCGCCUGCGCCGAUGGAGGUGUAGGGACUAGACGGCACCCACCUAAGGCCAACGGUAUGGUGAAGGCAUAGUCUAGGGAGUGGCGAAAGUCACACAAACCGG, the figure is 0.00843; as for GUGCCUUGCGCCGGGAAACCACGCAAGGGAUGGUGUCAAAUUCGGCGAAACCUAAGCGCCCGCCCGGGCGUAUGGCAACGCGGAGCCAAGCUUCGGCGCCUGCGCCGAUGGAGGUGUAGGGACUAGACGGCACCCACCUAAGGCCAACGGUAUGGUGAAGGCAUAGUCGAGGGAGUGGCGAAAGUCACACAAACCGG, 0.00841.
GUGCCUUGCGCCGGGAAACCACGCAAGGGAUGGUGUCAAAUUCGGCGAAACCUAAGCGCCCGCCCGGGCGUAUGGCAACGCGGAGCCAAGCUUCGGCGCCUGCGCCGAUGGAGGUGUAGGGACUAGACGGCACCCACCUAAGGCCAACGGUAUGGUGAAGGCAUAGUCAAGGGAGUGGCGAAAGUCACACAAACCGG: the reverse-splicing fitness turned out to be 0.00962.
With GUGCCUUGCGCCGGGAAACCACGCAAGGGAUGGUGUCAAAUUCGGCGAAACCUAAGCGCCCGCCCGGGCGUAUGGCAACGCGGAGCCAAGCUUCGGCGCCUGCGCCGAUGGAGGUGUAGGGACUAGACGGCACCCACCUAAGGCCAACGGUAUGGUGAAGGCAUAGUCGAGGGAGGGGCGAAAGUCACACAAACCGG, the reverse-splicing fitness came to 0.00523.
Regarding GUGCCUUGCGCCGGGAAACCACGCAAGGGAUGGUGUCAAAUUCGGCGAAACCUAAGCGCCCGCCCGGGCGUAUGGCAACGCGGAGCCAAGCUUCGGCGCCUGCGCCGAUGGAGGUGUAGGGACUAGACGGCACCCACCUAAGGCCAACGGUAUGGUGAAGGCAUAGUCGAGGGAGCGGCGAAAGUCACACAAACCGG, the reverse-splicing fitness was found to be 0.00887.
As for GUGCCUUGCGCCGGGAAACCACGCAAGGGAUGGUGUCAAAUUCGGCGAAACCUAAGCGCCCGCCCGGGCGUAUGGCAACGCGGAGCCAAGCUUCGGCGCCUGCGCCGAUGGAGGUGUAGGGACUAGACGGCACCCACCUAAGGCCAACGGUAUGGUGAAGGCAUAGUCGAGGGAGAGGCGAAAGUCACACAAACCGG, the figure is 0.00914; as for GUGCCUUGCGCCGGGAAACCACGCAAGGGAUGGUGUCAAAUUCGGCGAAACCUAAGCGCCCGCCCGGGCGUAUGGCAACGCGGAGCCAAGCUUCGGCGCCUGCGCCGAUGGAGGUGUAGGGACUAGACGGCACCCACCUAAGGCCAACGUUAUGGUGAAGGCAUAGUCCAGGGAGAGGCGAAAGUCACACAAACCGG, 0.0118; as for GUGCCUUGCGCCGGGAAACCACGCAAGGGAUGGUGUCAAAUUCGGCGAAACCUAAGCGCCCGCCCGGGCGUAUGGCAACGCGGAGCCAAGCUUCGGCGCCUGCGCCGAUGGAGGUGUAGGGACUAGACGGCACCCACCUAAGGCCAACGGUAUGGUGAAGGCAUAGUCUAGGGAGGGGCGAAAGUCACACAAACCGG, 0.00615.
Consider GUGCCUUGCGCCGGGAAACCACGCAAGGGAUGGUGUCAAAUUCGGCGAAACCUAAGCGCCCGCCCGGGCGUAUGGCAACGCGGAGCCAAGCUUCGGCGCCUGCGCCGAUGGAGGUGUAGGGACUAGACGGCACCCACCUAAGGCCAACGGUAUGGUGAAGGCAUAGUCUAGGGAGAGGCGAAAGUCACACAAACCGG, for which the reverse-splicing fitness came to 0.0139.
Turning to GUGCCUUGCGCCGGGAAACCACGCAAGGGAUGGUGUCAAAUUCGGCGAAACCUAAGCGCCCGCCCGGGCGUAUGGCAACGCGGAGCCAAGCUUCGGCGCCUGCGCCGAUGGAGGUGUAGGGACUAGACGGCACCCACCUAAGGCCAACGGUAUGGUGAAGGCAUAGUCUAGGGAGCGGCGAAAGUCACACAAACCGG, the reverse-splicing fitness stood at 0.0147.
The figure for GUGCCUUGCGCCGGGAAACCACGCAAGGGAUGGUGUCAAAUUCGGCGAAACCUAAGCGCCCGCCCGGGCGUAUGGCAACGCGGAGCCAAGCUUCGGCGCCUGCGCCGAUGGAGGUGUAGGGACUAGACGGCACCCACCUAAGGCCAACGUUAUGGUGAAGGCAUAGUCAAGGGAGCGGCGAAAGUCACACAAACCGG is 0.00841; for GUGCCUUGCGCCGGGAAACCACGCAAGGGAUGGUGUCAAAUUCGGCGAAACCUAAGCGCCCGCCCGGGCGUAUGGCAACGCGGAGCCAAGCUUCGGCGCCUGCGCCGAUGGAGGUGUAGGGACUAGACGGCACCCACCUAAGGCCAACGUUAUGGUGAAGGCAUAGUCAAGGGAGGGGCGAAAGUCACACAAACCGG it is 0.00578.
Consider GUGCCUUGCGCCGGGAAACCACGCAAGGGAUGGUGUCAAAUUCGGCGAAACCUAAGCGCCCGCCCGGGCGUAUGGCAACGCGGAGCCAAGCUUCGGCGCCUGCGCCGAUGGAGGUGUAGGGACUAGACGGCACCCACCUAAGGCCAACGUUAUGGUGAAGGCAUAGUCAAGGGAGAGGCGAAAGUCACACAAACCGG, for which the reverse-splicing fitness worked out at 0.0167.

The values are drawn from the RNAGym collection of RNA variant scans (doi:10.1093/molbev/msab373).
